Measurements from PMC11035769.
pKd: −log10 of the molar value.

Target: CD16a-His (human) (UniProt P08637)
Assay: BLI; CD16a-His (250 ng/mL) immobilised on HIS1K biosensors; analytes at 3200 - 50 nM or 400 - 6.25 nM; 1X kinetics buffer (PBS pH 7.4, 0.02% Tween-20, 0.1% bovine serum albumin); 300 s association, 600 s dissociation; 1:1 fitting model; geometric means

Sequence of UniProt P08637 (P08637 17-208): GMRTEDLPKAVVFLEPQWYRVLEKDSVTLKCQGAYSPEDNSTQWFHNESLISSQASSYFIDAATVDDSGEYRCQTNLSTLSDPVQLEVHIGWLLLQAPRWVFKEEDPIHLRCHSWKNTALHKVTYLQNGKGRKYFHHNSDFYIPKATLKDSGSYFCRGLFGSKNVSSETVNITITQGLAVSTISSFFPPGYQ

- pKd: 6.61
- koff: 0.0402 s⁻¹
- kon: 165000 M⁻¹ s⁻¹
Substance: Immune Globulin Intravenous (Human) (antibody)
